Reference: patent publication US20090111753A1, “Nogo-A Polypeptide Fragments, Variant Nogo Receptor-1 Polypeptides, and Uses Thereof” (Yale University, priority 2004, published 2009)
Positions count from the first letter of the chain named. Names may count otherwise. No end group written: not given here. *: point of attachment. Biotin = O=C1N[C@H]2[C@H](CS[C@H]2CCCCC(=O)*)N1

Columns and labels:
E13 chick DRG neurons = assay: cDRG neurite outgrowth assay; assay type: cell-based
Experimental: FIG. 2D. Differential effects of Amino-Nogo fragments on neurite outgrowth. Dissociated neurons from E13 chick DRGs were plated on 96 well dishes coated with lpmol protein per well and stained for neurofilament localization.
FIG. 2E. Neurite length per neuron were measured and plotted as percentage of PBS control with increasing concentration of dried protein for experiment described in […].
FIG. 6C. B24/32 peptide inhibits neurite outgrowth. Dissociated neurons from E13 chick DRG were plated onto 96 well dishes coated with 500 pmol of dried peptides as indicated and stained for neurofilament localization.
FIG. 6D. Neurite length per neuron was measured and plotted as percentage of PBS control for experiments as in (C).
(§1) It has been recognized that the Amino-Nogo-A protein inhibits non-neuronal cell spreading and axonal outgrowth when the protein is substrate bound (Chen, M. S., et al., Nature 403:434-439 (2000); Fournier, A. E., et al., Nature 409:341-346 (2001)). […] The later domain has been termed Δ20. To determine whether the NgR-interacting aa of Amino-Nogo-A described in Example 1 regulate cell spreading and axonal outgrowth, various fragments were expressed as GST fusion proteins and purified from E. coli. To generate GST fusion proteins, amino Nogo fragments were cloned in pGEX2T (Amersham Pharmacia). Native and soluble GST fusion proteins were expressed and purified as described (GrandPre, T., et al., Nature 403:439-444 (2000)). COS-7 binding assays were done as described (Fournier, A. E., et al., Nature 409:341-346 (2001)). Bound AP to COS-7 cells was measured using NIH image software. Fibroblast spreading and cDRG outgrowth assay were done as described (Fournier, A. E., et al., Nature 409:341-346 (2001)) with some modifications. Briefly, 50 μl of purified GST fusion protein or peptides diluted in PBS was pipetted into polylysine precoated 96 well plates (Becton Dickson Biocoat plates) and dried overnight at room temperature. For fibroblast spreading assay, subconfluent COS-7 cells were then plated for 1 hour in serum containing medium before fixation and staining with rho damine-phalloidin.
The same GST-Amino-Nogo proteins were tested for their ability to reduce neurite outgrowth from chick E13 DRG neurons. For cDRG outgrowth assay, dissociated E13 cDRG neurons were plated for 6 hours before fixation. […] Cell area, number of attached cells and neurite length were measured using the Imageexpress machine and software (Axon Instrument).
We reasoned that fusing the 24 aa segment of Amino-Nogo-A to NEP32 antagonist peptide might create a high affinity antagonist with a potency similar to the binding of AP-B4C-66 to NgR. […] Cell area, number of attached cells and neurite length were measured using the linageexpress machine and software (Axon Instrument).

[1] = target: T1, human NgR1 alanine mutant 158, 160 (human, UniProt Q9BZR6 27-473); assay: AP-ligand binding, COS-7
T1 sequence: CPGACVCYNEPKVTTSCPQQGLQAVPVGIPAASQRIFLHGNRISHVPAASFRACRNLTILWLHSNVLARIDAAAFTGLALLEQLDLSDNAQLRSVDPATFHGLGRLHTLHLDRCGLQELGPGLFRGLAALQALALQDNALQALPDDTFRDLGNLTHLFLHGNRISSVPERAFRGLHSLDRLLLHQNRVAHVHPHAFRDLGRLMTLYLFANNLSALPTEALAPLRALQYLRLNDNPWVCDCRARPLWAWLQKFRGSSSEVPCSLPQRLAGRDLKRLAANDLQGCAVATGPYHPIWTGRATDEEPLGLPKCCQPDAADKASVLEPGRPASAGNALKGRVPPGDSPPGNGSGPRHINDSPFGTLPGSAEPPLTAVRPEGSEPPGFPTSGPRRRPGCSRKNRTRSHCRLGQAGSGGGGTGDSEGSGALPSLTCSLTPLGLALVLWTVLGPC

[2] = target: T2, human NgR1 alanine mutant 133, 136 (human, UniProt Q9BZR6 27-473); assay: AP-ligand binding, COS-7
T2 sequence: T1 sequence with H107A, H110A, A132Y, A134Y

[3] = target: T3, human NgR1 alanine mutant 82, 179 (human, UniProt Q9BZR6 27-473); assay: AP-ligand binding, COS-7
T3 sequence: T1 sequence with N56A, A132Y, A134Y, N153A

[4] = target: T4, human NgR1 alanine mutant 163 (human, UniProt Q9BZR6 27-473); assay: AP-ligand binding, COS-7
T4 sequence: T1 sequence with A132Y, A134Y, D137A

[5] = target: T5, human NgR1 alanine mutant 232, 234 (human, UniProt Q9BZR6 27-473); assay: AP-ligand binding, COS-7
T5 sequence: T1 sequence with A132Y, A134Y, Y206A, F208A

[6] = target: T6, human NgR1 alanine mutant 182, 186 (human, UniProt Q9BZR6 27-473); assay: AP-ligand binding, COS-7
T6 sequence: T1 sequence with A132Y, A134Y, H156A, H160A

COS-7 cells = assay: Fibroblast spreading assay on dried GST fusion protein; assay type: cell-based; settings: GST fusion protein presented as dried substrate
Experimental: FIG. 2A. Effects of Amino-Nogo fragments on fibroblast spreading and neurite outgrowth. Different effects of Amino-Nogo fragments on fibroblast spreading. COS-7 cells were allowed to attach and spread on slides with spots coated with 50 ng of dried GST fusion protein as indicated and stained for F-actin. GST-A: fusion protein of GST and A fragment (FIG. 1) of Amino-Nogo. GST-A, GST-B, GST-Δ20, GST-B4 and GST-B4C: fusion protein of GST and A, B, Δ20, B4 or B4C fragment (FIG. 1) of Amino-Nogo, respectively.
FIG. 2B. COS-7 cell area for experiments as in (A) was measured and plotted.
FIG. 2C. COS-7 cells were allowed to attach and spread on 96 well dishes coated with dried GST fusion proteins as indicated. Number of attached cells were counted and plotted as a function of the amount of various proteins dried per well in a 96 well dish.
as §1, with “For fibroblast spreading assay, subconfluent COS-7 cells were then plated for 1 hour in serum containing medium before fixation and staining with rho damine-phalloidin.” left out

For “Biotin-IFSAELSKTSVVDLLYWRDIKKTG [carboxyl 24 aa segment of Amino-Nogo-A]”, the “effect on Nogo-66 action on neurite outgrowth” value (E13 chick DRG neurons; biotinylated peptide, FIGS. 6C and 6D) was “does not block or enhance Nogo-66 action on neurite outgrowth”.

“biotin-IFSAELSKTSVVDLLYWRDIKKTGGRIYKGVIQAIQKSDEGHP FRAYLESEVAISEE [24-32 fusion peptide]” was tested, and the “axon outgrowth from DRG neurons” value (E13 chick DRG neurons; 500 pmol of dried biotinylated peptide per well) was “potently inhibited axon outgrowth”.

B1: AP-Nogo-66 (ligand, UniProt Q9NQC3 1055-1120, looked up)
chain: RIYKGVIQAIQKSDEGHPFRAYLESEVAISEELVQKYSNSALGHVNCTIKELRRLFLVDDLVDSLK
notes: domain: Nogo-66; construct described elsewhere (Fournier 2001); also called AP-Ng66; Ng66; not shown: alkaline phosphatase (AP); construct described elsewhere
B1: no binding [1]; no binding [2]; no binding [3]. B1: no binding [4]; no binding [5]; no binding [6].

B2: AP-fused Amino-Nogo fragment B4C (a.a. 950-1018) (ligand)
chain: LLPPDVSALATQAEIESIVKPKVLVKEAEKKLPSDTEKEDRSPSAIFSAELSKTSVVDLLYWRDIKKTG
notes: also called AmNg B4C; AP-B4C; not shown: alkaline phosphatase (AP), vector pcAP6
B2: no binding [1]; no binding [2]; no binding [3]. B2: no binding [4]; no binding [5]; no binding [6].

B3: B fragment of Amino-Nogo: fusion protein of GST and B fragment of Amino-Nogo (protein, UniProt Q9NQC3 622-1018, looked up, fragment)
chain: SAVPSAGASVIQPSSSPLEASSVNYESIKHEPENPPPYEEAMSVSLKKVSGIKEEIKEPENINAALQETEAPYISIACDLIKETKLSAEPAPDFSDYSEMAKVEQPVPDHSELVEDSSPDSEPVDLFSDDSIPDVPQKQDETVMLVKESLTETSFESMIEYENKEKLSALPPEGGKPYLESFKLSLDNTKDTLLPDEVSTLSKKEKIPLQMEELSTAVYSNDDLFISKEAQIRETETFSDSSPIEIIDEFPTLISSKTDSFSKLAREYTDLEVSHKSEIANAPDGAGSLPCTELPHDLSLKNIQPKVEEKISFSDDFSKNGSATSKVLLLPPDVSALATQAEIESIVKPKVLVKEAEKKLPSDTEKEDRSPSAIFSAELSKTSVVDLLYWRDIKKTG
modifications: GST fusion
With B3 the “COS-7 cell attachment and spreading” value (COS-7 cells) was “active”.
